The Kd is the concentration at which binding is half-saturated.

Results on one molecule are retold here after patent US20240218030A1 (CELLEMEDY, published 2024).

This experiment addresses T1, human transferrin receptor-Fc tag standard (human, UniProt P02786 89-760, limits assumed).
T1 construct: Reagent coated on the ELISA plate at 2 ug/ml; also called hTfR; hTER; not shown: Fc tag
As to the kind of experiment: ELISA on plate-coated human TfR-Fc with anti-His detection; Kd calculated from an expected saturation point, since the curve was not saturated at 10000 nM. The procedure: Then, it was washed 3 times with 200 μl of PBST (PBS+Tween0.05%). An antibody (mouse anti-His tag antibody, Hisprobe) that specifically binds to the hexa-His tag was diluted 1/1000 in PBST, and the diluted solution was treated by 100 μl at room temperature for 1 hour.
Then, it was washed 3 times with 200 μl of PBST (PBS+Tween0.05%). TMB solution expressing coloration by reacting with HRP was treated by 100 μl at room temperature for 15 minutes. After 50 μl of 1M H₂SO₄ solution was treated, optical density was measured with TECAN at a wavelength of 450 nm. This was calculated using the Langmuir equation (Table 4, FIGS. 4 to 6).
FIG. 7 illustrates results of evaluation/comparison of the binding force of huHF_mutant1-dual and huHF_mutant2-dual to hTfR.

T1 sequence (P02786 89-760 limits assumed): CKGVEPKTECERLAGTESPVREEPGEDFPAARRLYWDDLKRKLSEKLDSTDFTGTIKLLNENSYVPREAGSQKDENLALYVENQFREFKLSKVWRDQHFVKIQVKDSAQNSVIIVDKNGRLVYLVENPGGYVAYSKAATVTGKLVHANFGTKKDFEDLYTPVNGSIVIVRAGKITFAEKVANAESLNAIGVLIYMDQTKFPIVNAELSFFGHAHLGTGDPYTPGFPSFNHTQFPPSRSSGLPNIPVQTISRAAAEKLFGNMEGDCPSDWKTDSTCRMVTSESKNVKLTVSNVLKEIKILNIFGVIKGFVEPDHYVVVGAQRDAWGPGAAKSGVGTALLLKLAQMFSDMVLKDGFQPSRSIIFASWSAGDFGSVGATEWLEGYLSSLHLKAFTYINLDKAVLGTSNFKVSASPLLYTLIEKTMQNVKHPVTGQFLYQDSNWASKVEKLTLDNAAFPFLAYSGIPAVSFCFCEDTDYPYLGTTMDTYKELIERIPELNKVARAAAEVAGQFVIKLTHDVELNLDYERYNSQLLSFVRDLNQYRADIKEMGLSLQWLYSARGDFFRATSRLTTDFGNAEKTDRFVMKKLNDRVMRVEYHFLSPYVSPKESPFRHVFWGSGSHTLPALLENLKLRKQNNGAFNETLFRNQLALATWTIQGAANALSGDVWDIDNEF

B1: huHF_Mutant2-dual (designed binder)
chain: MTTASTSQVRQNYHAASEAAINAQINLELYASYVYLSMSYYFDRDDVALKNFAKYFLHQSHEEREHAEKLMKLQNQRGGRIALADIQKPDCDDGGSYGSLYAFDIWESGLNAMECALHLEKNVNQSLLALHALATAKNDPHLCDFIETHYLNEQVKAIKELGDHVTNLRKMGAPESGLAEYLFDKHTLGDSDNESMPSFITLASLSTWEGYFDF
notes: Self-assembled ferritin nanoparticle of 24 monomers
On to B1, for which the Kd is approximately 4.4 µM.
